Test results published in patent publication US20240327535A1 (EISAI R AND D MANAGEMENT, published 2024).
Where a chain is given by its changes, count along the chain named.

Legend:
[1] = target: T1, extracellular domain of human BCMA (human, UniProt Q02223 1-54); test: Octet BLI; Fab 200 nM
T1 construct: amine-linked to Octet AR2G tips; also called hsBCMA; BCMA (human)
T1 sequence: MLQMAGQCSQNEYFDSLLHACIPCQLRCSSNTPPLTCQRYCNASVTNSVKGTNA

[2] = target: T2, extracellular domain of rhesus monkey BCMA (rhesus monkey, UniProt F7FFA0 1-53); test: Octet BLI; Fab 200 nM
T2 construct: extracellular domain; also called RhBCMA
T2 sequence (F7FFA0 entry or part of it): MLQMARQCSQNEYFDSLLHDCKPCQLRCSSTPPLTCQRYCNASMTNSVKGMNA

B1: AB200-R1H32-R2Vk1 (Fab, V domains shown)
VH: QVQLVQSGAEVKKPGSSVKVSCKASGGTFSNYWMHWVRQAPGQGLEWMGATYRSHSDTYYNQKFKSRVTITADKSTSTAYMELSSLRSEDTAVYYCARGAIYHGYDVIDNWGQGTLVTVSS
VL: DIQMTQSPSSLSASVGDRVTITCRASQSISSYLNWYQQKPGKAPKLLIYAASSLQSGVPSRFSGSGSGTDFTLTISSLQPEDFATYYCQQFRKLPWSFGQGTKLEIKR
[1]
  Kd: 1.27 nM
[2]
  Kd: 5.42 nM

B2: AB200-R1H32-R2Vk20 (Fab, V domains shown)
VH: B1 VH
VL: B1 VL with A51T, S53N, F91Y, K93R, L94I, S97T
[1]
  Kd: 0.867 nM
[2]
  Kd: 4.82 nM

B3: AB200-R1H32-R2Vk30 (Fab, V domains shown)
VH: B1 VH
VL: B1 VL with A51T, S53N, S56I, F91Y, K93R, L94I, S97T
[1]
  Kd: 0.816 nM
[2]
  Kd: 3.92 nM

B4: AB200-R1H32-R2Vk19 (Fab, V domains shown)
VH: B1 VH
VL: B1 VL with A51T, S53N, F91Y, K93R
[1]
  Kd: 0.946 nM
[2]
  Kd: 4.57 nM

B5: AB200-R1H32-R2Vk32 (Fab, V domains shown)
VH: B1 VH
VL: B1 VL with A51T, S53N, S56I, F91Y, L94I
[1]
  Kd: 0.873 nM
[2]
  Kd: 4.83 nM

B6: AB200-R1H32-R2Vk41 (Fab, V domains shown)
VH: B1 VH
VL: B1 VL with L33I, A51T, S53N, L54I, K93R, S97T
[1]
  Kd: 1.19 nM
[2]
  Kd: 4.26 nM

B7: AB200-R1H32-R2Vk36 (Fab, V domains shown)
VH: B1 VH
VL: B1 VL with L33I, A51T, S53N, K93R, S97T
[1]
  Kd: 0.83 nM
[2]
  Kd: 3.45 nM

B8: AB200-R1H32-R2Vk22 (Fab, V domains shown)
VH: B1 VH
VL: B1 VL with A51T, S53N, F91Y, L94I
[1]
  Kd: 1.06 nM
[2]
  Kd: 5.64 nM

B9: AB200-R1H32-R2Vk33 (Fab, V domains shown)
VH: B1 VH
VL: B1 VL with A51T, S53N, S56I, L94I, S97T
[1]
  Kd: 0.996 nM
[2]
  Kd: 4.29 nM

B10: AB200-R1H32-R2Vk4 (Fab, V domains shown)
VH: B1 VH
VL: B1 VL with A51T, S53N, L54I
[1]
  Kd: 1.14 nM
[2]
  Kd: 5.6 nM

B11: AB200-R1H32-R2Vk21 (Fab, V domains shown)
VH: B1 VH
VL: B1 VL with A51T, S53N, K93R, S97T
[1]
  Kd: 0.8 nM
[2]
  Kd: 3.31 nM

B12: AB200-R1H32-R2Vk42 (Fab, V domains shown)
VH: B1 VH
VL: B1 VL with L33I, A51T, S53N, L54I, F91Y, L94I
[1]
  Kd: 1.04 nM
[2]
  Kd: 5.93 nM

B13: AB200-R1H32-R2Vk27 (Fab, V domains shown)
VH: B1 VH
VL: B1 VL with A51T, S53N, L54I, F91Y, L94I
[1]
  Kd: 1.21 nM
[2]
  Kd: 6.9 nM

B14: AB200-R1H32-R2Vk45 (Fab, V domains shown)
VH: B1 VH
VL: B1 VL with L33I, A51T, S53N, S56I, F91Y, K93R, L94I, S97T
[1]
  Kd: 0.714 nM
[2]
  Kd: 3.33 nM

B15: AB200-R1H32-R2Vk14 (Fab, V domains shown)
VH: B1 VH
VL: B1 VL with L33I, F91Y, K93R
[1]
  Kd: 1.32 nM
[2]
  Kd: 6.05 nM

B16: AB200-R1H32-R2Vk46 (Fab, V domains shown)
VH: B1 VH
VL: B1 VL with L33I, A51T, S53N, S56I, K93R, S97T
[1]
  Kd: 0.778 nM
[2]
  Kd: 2.98 nM

B17: AB200-R1H32-R2Vk39 (Fab, V domains shown)
VH: B1 VH
VL: B1 VL with L33I, A51T, S53N, L54I, F91Y, K93R
[1]
  Kd: 1.06 nM
[2]
  Kd: 4.76 nM

B18: AB200-R1H32-R2Vk47 (Fab, V domains shown)
VH: B1 VH
VL: B1 VL with L33I, A51T, S53N, S56I, F91Y, L94I
[1]
  Kd: 0.766 nM
[2]
  Kd: 3.91 nM

B19: AB200-R1H32-R2Vk3 (Fab, V domains shown)
VH: B1 VH
VL: B1 VL with A51T, S53N
[1]
  Kd: 1.01 nM
[2]
  Kd: 4.38 nM

B20: AB200-R1H32-R2Vk5 (Fab, V domains shown)
VH: B1 VH
VL: B1 VL with A51T, S53N, S56I
[1]
  Kd: 0.882 nM
[2]
  Kd: 5.66 nM

B21: AB200-R1H32-R2Vk23 (Fab, V domains shown)
VH: B1 VH
VL: B1 VL with A51T, S53N, L94I, S97T
[1]
  Kd: 1.13 nM
[2]
  Kd: 5.08 nM

B22: AB200-R1H32-R2Vk16 (Fab, V domains shown)
VH: B1 VH
VL: B1 VL with L33I, K93R, S97T
[1]
  Kd: 1.17 nM
[2]
  Kd: 4.54 nM

B23: AB200-R1H32-R2Vk25 (Fab, V domains shown)
VH: B1 VH
VL: B1 VL with A51T, S53N, L54I, F91Y, K93R, L94I, S97T
[1]
  Kd: 1.04 nM
[2]
  Kd: 5.62 nM

B24: AB200-R1H32-R2Vk10 (Fab, V domains shown)
VH: B1 VH
VL: B1 VL with F91Y, K93R, L94I, S97T
[1]
  Kd: 2.1 nM
[2]
  Kd: 7.86 nM

B25: AB200-R1H32-R2Vk18 (Fab, V domains shown)
VH: B1 VH
VL: B1 VL with L33I, L94I, S97T
[1]
  Kd: 1.52 nM
[2]
  Kd: 6.3 nM

B26: AB200-R1H32-R2Vk12 (Fab, V domains shown)
VH: B1 VH
VL: B1 VL with F91Y, L94I
[1]
  Kd: 1.53 nM
[2]
  Kd: 9.12 nM

B27: AB200-R1H32-R2Vk7 (Fab, V domains shown)
VH: B1 VH
VL: B1 VL with L33I, A51T, S53N, L54I
[1]
  Kd: 1.27 nM
[2]
  Kd: 5 nM

B28: AB200-R1H32-R2Vk15 (Fab, V domains shown)
VH: B1 VH
VL: B1 VL with L33I, F91Y, K93R, L94I, S97T
[1]
  Kd: 1.29 nM
[2]
  Kd: 6.41 nM

B29: AB200-R1H32-R2Vk29 (Fab, V domains shown)
VH: B1 VH
VL: B1 VL with A51T, S53N, S56I, F91Y, K93R
[1]
  Kd: 1.14 nM
[2]
  Kd: 3.69 nM

B30: AB200-R1H32-R2Vk11 (Fab, V domains shown)
VH: B1 VH
VL: B1 VL with K93R, S97T
[1]
  Kd: 0.936 nM
[2]
  Kd: 4.1 nM

B31: AB200-R1H32-R2Vk2 (Fab, V domains shown)
VH: B1 VH
VL: B1 VL with L33I
[1]
  Kd: 1.48 nM
[2]
  Kd: 5.5 nM

B32: AB200-R1H32-R2Vk13 (Fab, V domains shown)
VH: B1 VH
VL: B1 VL with L94I, S97T
[1]
  Kd: 2.2 nM
[2]
  Kd: 6.59 nM

B33: AB200-R1H32-R2Vk17 (Fab, V domains shown)
VH: B1 VH
VL: B1 VL with L33I, F91Y, L94I
[1]
  Kd: 1.43 nM
[2]
  Kd: 7.49 nM

B34: AB200-R1H32-R2Vk9 (Fab, V domains shown)
VH: B1 VH
VL: B1 VL with F91Y, K93R
[1]
  Kd: 1.43 nM
[2]
  Kd: 7.38 nM

B35: AB200-R1H32-R2Vk26 (Fab, V domains shown)
VH: B1 VH
VL: B1 VL with A51T, S53N, L54I, K93R, S97T
[1]
  Kd: 1.06 nM
[2]
  Kd: 3.85 nM

B36: AB200-R1H32-R2Vk31 (Fab, V domains shown)
VH: B1 VH
VL: B1 VL with A51T, S53N, S56I, K93R, S97T
[1]
  Kd: 0.665 nM
[2]
  Kd: 2.82 nM

B37: AB200-R1H32-R2Vk28 (Fab, V domains shown)
VH: B1 VH
VL: B1 VL with A51T, S53N, L54I, L94I, S97T
[1]
  Kd: 1.19 nM
[2]
  Kd: 5.99 nM

B38: AB200-R1H32-R2Vk6 (Fab, V domains shown)
VH: B1 VH
VL: B1 VL with L33I, A51T, S53N
[1]
  Kd: 1.23 nM
[2]
  Kd: 4.63 nM

B39: AB200-R1H32-R2Vk34 (Fab, V domains shown)
VH: B1 VH
VL: B1 VL with L33I, A51T, S53N, F91Y, K93R
[1]
  Kd: 1.12 nM
[2]
  Kd: 4.53 nM

B40: AB200-R1H32-R2Vk8 (Fab, V domains shown)
VH: B1 VH
VL: B1 VL with L33I, A51T, S53N, S56I
[1]
  Kd: 0.92 nM
[2]
  Kd: 3.59 nM

B41: AB200-R1H32-R2Vk24 (Fab, V domains shown)
VH: B1 VH
VL: B1 VL with A51T, S53N, L54I, F91Y, K93R
[1]
  Kd: 1.05 nM
[2]
  Kd: 4.89 nM

B42: AB200-R1H32-R2Vk35 (Fab, V domains shown)
VH: B1 VH
VL: B1 VL with L33I, A51T, S53N, F91Y, K93R, L94I, S97T
[1]
  Kd: 0.843 nM
[2]
  Kd: 4.13 nM
